This note sets out measurements from publication PMC10999177, “miR‐1246 promotes osteosarcoma cell migration via NamiRNA‐enhancer network dependent on Argonaute 2”.

The data set deals with hAGO2 (Homo sapiens, UniProt Q9UKV8 1-859). Description: EMSA; 20 nM probe, binding buffer of cited ref. 28 (composition and pH not given), on ice 30 min; 5% native PAGE, 0.5x TBE, 100 V 50 min. As to conditions: protein: recombinant; tags: MBP-tag removed by thrombin; HisTrap purification (His tag implied); label: 5'-Cy5; single strand. On the technique in general: In EMSA bound probe runs differently from free probe, usually more slowly.

The term Kd denotes a measure of binding affinity in units of concentration.

Chain of hAGO2 (Q9UKV8 whole entry): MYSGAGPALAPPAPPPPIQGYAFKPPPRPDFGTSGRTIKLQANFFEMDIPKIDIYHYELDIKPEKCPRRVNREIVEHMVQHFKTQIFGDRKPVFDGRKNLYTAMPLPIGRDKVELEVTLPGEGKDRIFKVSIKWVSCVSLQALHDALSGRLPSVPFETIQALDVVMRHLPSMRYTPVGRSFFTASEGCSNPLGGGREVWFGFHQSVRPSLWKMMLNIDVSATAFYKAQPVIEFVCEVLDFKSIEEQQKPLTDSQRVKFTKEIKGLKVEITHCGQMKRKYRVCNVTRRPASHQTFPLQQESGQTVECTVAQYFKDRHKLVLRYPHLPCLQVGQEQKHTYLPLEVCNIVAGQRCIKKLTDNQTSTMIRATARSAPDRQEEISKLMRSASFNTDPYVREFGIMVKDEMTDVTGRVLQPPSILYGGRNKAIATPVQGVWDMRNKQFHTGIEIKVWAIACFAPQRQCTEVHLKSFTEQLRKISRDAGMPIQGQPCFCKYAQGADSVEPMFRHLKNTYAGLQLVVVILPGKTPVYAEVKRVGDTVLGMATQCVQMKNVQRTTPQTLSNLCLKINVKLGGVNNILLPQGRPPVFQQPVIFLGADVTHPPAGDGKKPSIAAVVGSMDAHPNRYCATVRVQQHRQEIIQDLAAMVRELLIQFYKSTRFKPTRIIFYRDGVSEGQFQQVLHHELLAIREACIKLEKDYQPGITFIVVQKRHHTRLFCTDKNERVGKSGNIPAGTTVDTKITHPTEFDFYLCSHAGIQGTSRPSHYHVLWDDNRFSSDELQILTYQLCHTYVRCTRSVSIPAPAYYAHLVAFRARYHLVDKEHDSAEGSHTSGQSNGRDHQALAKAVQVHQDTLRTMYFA

Consider AAUGGAUUUUUGGAGCAGG (ssRNA) [5'Cy5-miR-1246], for which the Kd was found to be 12.2 ± 1.8 nM.
